Source: paper PMC3895837

Target: T1, Siglec-5 (Sialic acid-binding Ig-like lectin 5) (human (NB4 AML cell line)) (UniProt O15389)
T1 sequence: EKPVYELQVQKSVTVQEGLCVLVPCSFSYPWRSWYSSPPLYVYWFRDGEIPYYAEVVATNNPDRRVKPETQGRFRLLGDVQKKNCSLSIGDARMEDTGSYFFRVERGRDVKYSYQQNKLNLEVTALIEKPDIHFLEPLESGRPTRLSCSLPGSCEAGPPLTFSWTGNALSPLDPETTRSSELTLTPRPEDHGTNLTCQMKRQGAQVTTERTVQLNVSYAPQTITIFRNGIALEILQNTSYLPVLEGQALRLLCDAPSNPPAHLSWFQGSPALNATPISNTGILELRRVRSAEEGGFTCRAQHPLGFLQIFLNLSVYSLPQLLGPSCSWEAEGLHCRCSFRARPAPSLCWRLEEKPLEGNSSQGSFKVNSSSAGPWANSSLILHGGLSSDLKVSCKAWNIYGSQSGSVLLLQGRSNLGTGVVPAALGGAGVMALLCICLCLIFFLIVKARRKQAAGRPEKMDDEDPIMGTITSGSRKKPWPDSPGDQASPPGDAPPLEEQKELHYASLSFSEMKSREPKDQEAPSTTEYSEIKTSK
Test: flow cytometry on NB4 cells
Conditions: PBS with 4.5 g/L glucose, 5 mM MgCl2, 0.1 mg/ml yeast tRNA, 1 mg/ml BSA (0.1% NaN3 for flow cytometry), on ice 30 min; pH not stated; JH6 and JH19 (whole-cell …)

Sequence “GACGCTTACTCAGGTGTGACTCGAAGGGGTTGGGTGGGTTTATACAAATTAATTAATATTGTATGGTATATTTCGAAGGACGCAGATGAAGTCTC [K19]” has a Kd of 12.4 nM.
